Patent US11278600B2, “Human alpha-galactosidase variants” (Codexis, Inc., priority 2014, dated 2022)

Key:
Assay type in all cases: biochemical
[1] = HTP-analysis of yeast culture supernatants, no challenge (MUGal hydrolysis); conditions: activity of the variant/activity of Rd7BB (SEQ ID NO: 44)
In short: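 GLA variants were expressed in INVSc1 yeast grown in SD-Ura broth with glucose at 30° C., and culture supernatants were collected after 66-84 h. Supernatant was mixed with McIlvaine buffer pH 4.8 and MUGal (2 mM stock) in 50 mM citrate, 200 mM KCl, pH 4.6, incubated at 37° C. for 30-180 minutes, then quenched with sodium carbonate.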

[2] = HTP-analysis of supernatants pretreated with acid (MUGal hydrolysis); conditions: activity of the variant/activity of Rd7BB (SEQ ID NO: 44); challenge at pH 3.5
In short: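 MUGal hydrolysis was tracked by fluorescence (Ex 355 nm, Em 448 nm) after a 30-180 min reaction at 37° C. in pH 4.8 McIlvaine/citrate buffer, stopped with 1 M sodium carbonate. Beforehand, yeast (INVSc1) culture supernatants carrying GLA variants were held 1-3 h at 37° C. in acidic McIlvaine buffer, pH 3.3-4.3.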

[3] = HTP-analysis of supernatants pretreated with base (MUGal hydrolysis); conditions: activity of the variant/activity of Rd7BB (SEQ ID NO: 44); challenge at pH 7.5
In short: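 Fluorescence of released 4-MU (Ex 355 nm, Em 448 nm) after carbonate quench reports MUGal hydrolysis by GLA variants secreted from INVSc1 yeast. Before the acidic (pH 4.3-4.8) 30-180 min reaction at 37° C, supernatants had been pre-incubated at pH 7.0-9.7 for 1-18 h at 37° C.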

Molecule	Relative Activity of GLA Variants After No Challenge (NC) [1]	Relative Activity of GLA Variants After Challenge at pH 3.5 [2]	Relative Activity of GLA Variants After Challenge at pH 7.5 [3]
663 (protein, Synthetic Polypeptide sequence of Variant No. 663 of mature Human GLA) LDNGLARTPTMGWLHWERFMCNLDCQEEPDSCISEKLFMEMADRMVTEGWKDAGYEYLCIDDCWMAPQRDSEGRLQADPQRFPHGIRQLANHVHSKGLKLGIYADVGNKTCAGFPGSFGYYDIDAQTFADWGVDLLKFDGCYCDSLENLADGYKHMSLALNRTGRPIVYSCEWPLYMWPFQKPNYTEIRQYCNHWRNFADIDDSWASIKSILDWTSRNQERIVDVAGPGGWNDPDMLVIGNFGLSWDQQVTQMALWAIMAGPLFMSNDLRAISPQAKALLQDKDVIAINQDPLGKQGYQLRKGDNFEVWERPLSGDAWAVAIINRQEIGGPRSYTIPVASLGKGVACNPACFITQLLPVKRQLGFYNATSRLKSHINPTGTVLLQLENTMQTSLKDLL	+ (>0.5 to 1.5 relative activity over Rd7BB (SEQ ID NO: 44))	+ (>0.5 to 1.5 relative activity over Rd7BB (SEQ ID NO: 44))	− (<0.5 relative activity to Rd7BB (SEQ ID NO: 44))
639 (protein, Synthetic Polypeptide sequence of Variant No. 639 of mature Human GLA) LDNGLARTPTMGWLHWERFMCNLDCQEEPDSCISEKLFEEMAERMVTEGWKDAGYEYLCIDDCWMAPQRDSEGRLQADPQRFPHGIRQLANHVHSKGLKLGIYADVGNKTCAGFPGSFGYYDIDAQTFADWGVDLLKFDGCYCDSLENLADGYKHMSLALNRTGRPIVYSCEWPLYMWPFQKPNYTEIRQYCNHWRNFADIDDSWASIKSILDWTSRNQERIVDVAGPGGWNDPDMLVIGNFGLSWYQQVTQMALWAIMAAPLFMSNDLRAISPQAKALLQDKDVIAINQDPLGKQGYQLRKGDNFEVWERPLSGDAWAVAIINRQEIGGPRSYTIPVASLGKGVACNPACFITQLLPVKRQLGFYNWTSRLKSHINPTGTVLLQLENTMQTSLKDLL	− (<0.5 relative activity to Rd7BB (SEQ ID NO: 44))	− (<0.5 relative activity to Rd7BB (SEQ ID NO: 44))	− (<0.5 relative activity to Rd7BB (SEQ ID NO: 44))
667 (protein, Synthetic Polypeptide sequence of Variant No. 667 of mature Human GLA) LDNGLARTPTMGWLHWERFMCNLDCQEEPGSCISEKLFMEMAERMVTEGWKDAGYEYLCIDDCWMAPQRDSEGRLQADPQRFPHGIRQLANHVHSKGLKLGIYADVGNKTCAGFPGSFGYYDIDAQTFADWGVDLLKFDGCYCDSLENLADGYKHMSLALNRTGRPIVYSCEWPLYMWPFQKPNYTEIRQYCNHWRNFADIDDSWASIKSILDWTSRNQERIVDVAGPGGWNDPDMLVIGNFGLSWDQQVTQMALWAIMAAPLFMSNDLRAISPQAKALLQDKDVIAINQDPLGKQGYQLRKGDNFEVWERPLSGDAWAVAIINRQEIGGPRSYTIPVASLGKGVACNPACFITQLLPVKRQLGFYNWTSRLKSHINPTGTVLLQLENTMQTSLKDLL	+ (>0.5 to 1.5 relative activity over Rd7BB (SEQ ID NO: 44))	+ (>0.5 to 1.5 relative activity over Rd7BB (SEQ ID NO: 44))	+ (>0.5 to 1.5 relative activity over Rd7BB (SEQ ID NO: 44))
666 (protein, Synthetic Polypeptide sequence of Variant No. 666 of mature Human GLA) LDNGLARTPTMGWLHWERFMCNLDCQEEPDSCISEKLFMEMAERMVTEGWKDAGYEYLCIDDCWMAPQRDSEGRLQADPQRFPHGIRQLANHVHSKGLKLGIYADVGNKTCAGFPGSFGYYDIDAQTFADWGVDLLKFDGCYCDSLENLADGYKHMSLALNRTGRPIVYSCEWPLYMWPFQKPNYTEIRQYCNHWRNFADIDDSWASIKSILDWTSRNQERIVDVAGLGGWNDPDMLVIGNFGLSWDQQVTQMALWAIMAAPLFMSNDLRAISPQAKALLQDKDVIAINQDPLGKQGYQLRKGDNFEVWERPLSGDAWAVAIINRQEIGGPRSYTIPVASLGKGVACNPACFITQLLPVKRQLGFYNWTSRLKSHINPTGTVLLQLENTMQTSLKDLL	+ (>0.5 to 1.5 relative activity over Rd7BB (SEQ ID NO: 44))	+ (>0.5 to 1.5 relative activity over Rd7BB (SEQ ID NO: 44))	− (<0.5 relative activity to Rd7BB (SEQ ID NO: 44))
664 (protein, Synthetic Polypeptide sequence of Variant No. 664 of mature Human GLA) LDNGLARTPPMGWLHWERFMCNLDCQEEPDSCISEKLFMEMAERMVTEGWKDAGYEYLCIDDCWMAPQRDSEGRLQADPQRFPHGIRQLANHVHSKGLKLGIYADVGNKTCAGFPGSFGYYDIDAQTFADWGVDLLKFDGCYCDSLENLADGYKHMSLALNRTGRPIVYSCEWPLYMWPFQKPNYTEIRQYCNHWRNFADIDDSWASIKSILDWTSRNQERIVDVAGPGGWNDPDMLVIGNFGLSWDQQVTHRELWAIMAGPLFMSNDLRAISPQAKALLQDKDVIAINQDPLGKQGYQLRKGDNFEVWERPLSGDAWAVAIINRQEIGGPRSYTIPVASLGKGVACNPACFITQLLPVKRQLGFYNWTSRLKSHINPTGTVLLQLENTMQTSLKDLL	− (<0.5 relative activity to Rd7BB (SEQ ID NO: 44))	− (<0.5 relative activity to Rd7BB (SEQ ID NO: 44))	− (<0.5 relative activity to Rd7BB (SEQ ID NO: 44))
669 (protein, Synthetic Polypeptide sequence of Variant No. 669 of mature Human GLA) LDNGLARTPTMGWLHWERFMCNLDCQEEPDSCISEKLFMEMAERMVTEGWKDAGYEYLCIDDCWMAPQRDSEGRLQADPQRFPHGIRQLANHVHSKGLKLGIYADVGNKTCAGFPGSFGYYDIDAQTFADWGVDLLKFDGCYCDSLENLADGYKHMSLALNRTGRPIVYSCEWPLYMWPFQKPNYTEIRQYCNHWRNFADIDDSWASIKSILDWTSRNQERIVDVAGPGGWNDPDMLVIGNFGLSWDQQVTQMALWAIMAASLFMSNDLRAISPQAKALLQDKDVIAINQDPLGKQGYQLRKGDNFEVWERPLSGDAWAVAIINRQEIGGPRSYTIPVASLGKGVACNPACFITQLLPVKRQLGFYNWTSRLKSHINPTGTVLLQLENTMQTSLKDLL	+ (>0.5 to 1.5 relative activity over Rd7BB (SEQ ID NO: 44))	− (<0.5 relative activity to Rd7BB (SEQ ID NO: 44))	− (<0.5 relative activity to Rd7BB (SEQ ID NO: 44))
665 (protein, Synthetic Polypeptide sequence of Variant No. 665 of mature Human GLA) LDNGLACTPTMGWLHWERFMCNLDCQEEPDSCISEKLFMEMAERMVTEGWKDAGYEYLCIDDCWMAPQRDSEGRLQADPQRFPHGIRQLANHVHSKGLKLGIYADVGNKTCAGFPGSFGYYDIDAQTFADWGVDLLKFDGCYCDSLENLADGYKHMSLALNRTGRPIVYSCEWPLYMWPFQKPNYTEIRQYCNHWRNFADIDDSWASIKSILDWTSRNQERIVDVAGPGGWNDPDMLVIGNFGLSWDQQVTQMALWAIMAAPLFMSNDLRAISPQAKALLQDKDVIAINQDPLGKQGYQLRKGDNFEVWERPLSGDAWAVAIINRQEIGGPRSYTIPVASLGKGVACNPACFITQLLPVKRQLGFYNATSRLKSHINPTGTVLLQLENTMQTSLKDLL	+ (>0.5 to 1.5 relative activity over Rd7BB (SEQ ID NO: 44))	+ (>0.5 to 1.5 relative activity over Rd7BB (SEQ ID NO: 44))	+ (>0.5 to 1.5 relative activity over Rd7BB (SEQ ID NO: 44))
668 (protein, Synthetic Polypeptide sequence of Variant No. 668 of mature Human GLA) LDNGLARTPTMGWLHWERFMCNLDCQEEPDSCISEKLFEEMAERMVTEGWKDAGYEYLCIDDCWMAPQRDSEGRLQADPQRFPHGIRQLANHVHSKGLKLGIYADVGNKTCAGFPGSFGYYDIDAQTFADWGVDLLKFDGCYCDSLENLADGYKHMSLALNRTGRPIVYSCEWPLYMWPFQKPNYTEIRQYCNHWRNFADIDDSWASIKSILDWTSRNQERIVDVAGPGGWNDPDMLVIGNFGLSWDQQVTQMALWAIMAAPLFMSNDLRAISPQAKALLQDKDVIAINQDPLGKQGYQLRKGDNFEVWERPLSGDAWAVAIINRQEIGGPRSYTIPVASLGKGVACNPACFITQLLPVKRQLGFYNWTSRLKSHINPTGTVLLQLENTMQTSLKDLL	+ (>0.5 to 1.5 relative activity over Rd7BB (SEQ ID NO: 44))	+ (>0.5 to 1.5 relative activity over Rd7BB (SEQ ID NO: 44))	+ (>0.5 to 1.5 relative activity over Rd7BB (SEQ ID NO: 44))
